Data set [1] has as its target T1, PinR (AIY20223.2, TetR family) (Pimelobacter simplex).
T1 chain: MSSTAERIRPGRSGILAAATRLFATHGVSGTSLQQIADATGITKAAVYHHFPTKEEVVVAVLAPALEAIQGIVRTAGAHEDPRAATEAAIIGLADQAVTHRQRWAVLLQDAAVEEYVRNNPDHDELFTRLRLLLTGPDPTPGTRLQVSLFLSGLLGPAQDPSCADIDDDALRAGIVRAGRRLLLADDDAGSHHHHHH
As to the kind of experiment: FRET; progesterone for half-maximal DNA release; QD/TF/DNA 1/4/18. Particulars: tags: C-terminal His6, self-assembled on CdSe/CdS/ZnS quantum dot; label: Cy5 at 5' and 3'.

For data set [2], the target named is T2, TetRc-tdTomato (UniProt P03039 P03039:1-219).
T2 chain: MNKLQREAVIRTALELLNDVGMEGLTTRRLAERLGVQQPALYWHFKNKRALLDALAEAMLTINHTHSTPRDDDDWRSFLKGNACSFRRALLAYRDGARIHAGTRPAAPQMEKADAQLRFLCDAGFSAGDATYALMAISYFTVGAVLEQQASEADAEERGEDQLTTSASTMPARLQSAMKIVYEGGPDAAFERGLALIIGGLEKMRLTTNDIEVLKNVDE
As to the kind of experiment: FRET; aTc concentration for half-maximal DNA release; 5 mM MgCl2. Particulars: tags: tdTomato fusion, Strep-tag purified; chain copies: 2; label: Cy5 at 5' and 3' of reverse strand. The protocol: (§1) At higher concentrations of aTc, binding of the TF and DNA is disrupted, reducing FRET, thereby increasing donor emission and reducing acceptor emission. Spectra are background subtracted to eliminate the effects of direct acceptor excitation. FIG. 3D-3F show the ratio of acceptor fluorescence intensity to donor fluorescence intensity as a function of aTc concentration. […] Sensor 1 was prepared with a 1:1:3 ratio of tdTomato:TF:DNA, while sensors 2 and 3 were prepared with a 1:4:18 ratio of QD:TF:DNA. tdTomato (200 nM) and QD (50 nM) concentrations were selected to keep TF concentration constant at 200 nM. Data are mean±standard deviation for n=3.
(§2) A TF to DNA ratio was chosen for each sensor (1:3 for Sensor 1, 1:4.5 for Sensors 2 and 3) and kept constant for subsequent experiments testing sensor sensitivity to aTc. Photoluminescence spectra were measured from sensors with increasing concentrations of aTc yielded changes in the ratio between the acceptor emission and donor emission (F_A/F_D). With increasing concentrations of aTc, F_A/F_D values decreased indicating unbinding of the DNA from the TF resulting in an increase in donor emission and decrease in acceptor emission (FIG. 3A-F). No changes were observed when aTc was titrated into a solution of non-binding donor-acceptor pairs (scrambled controls). […]

The target of data set [3] is T3, TetRc-6His (UniProt P03039 P03039:1-219).
T3 chain: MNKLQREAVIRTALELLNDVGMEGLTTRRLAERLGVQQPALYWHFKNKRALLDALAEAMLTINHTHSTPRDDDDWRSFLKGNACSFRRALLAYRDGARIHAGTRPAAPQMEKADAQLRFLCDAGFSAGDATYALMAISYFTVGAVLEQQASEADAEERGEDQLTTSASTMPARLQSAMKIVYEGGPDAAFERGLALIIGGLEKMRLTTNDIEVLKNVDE
Described as above. Particulars: tags: His6, on quantum dot QD1; chain copies: 2; label: Cy5 at 5' and 3' of reverse strand. The protocol: as §1, §2

For data set [4], the target named is T4, TetRd-6His (UniProt P0ACT4 P0ACT4:2-218). As to the kind of experiment: FRET; aTc for half-maximal DNA release; lower DNA affinity than TetRc; 5 mM MgCl2. The following applies: tags: His6, on quantum dot QD2; chain copies: 2; label: Cy5 at 5' and 3' of reverse strand.
T4 sequence (P0ACT4 2-218, one chain of several): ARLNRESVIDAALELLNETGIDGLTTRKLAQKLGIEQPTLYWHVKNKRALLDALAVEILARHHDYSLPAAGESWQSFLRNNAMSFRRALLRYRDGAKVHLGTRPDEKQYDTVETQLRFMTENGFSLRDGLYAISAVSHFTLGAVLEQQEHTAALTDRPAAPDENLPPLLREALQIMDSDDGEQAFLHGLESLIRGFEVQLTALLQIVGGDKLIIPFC
The target in data set [5] is T1, PinR (AIY20223.2, TetR family). The data set is described as follows: FRET; progesterone concentration for half-maximal DNA release; QD/TF/DNA 1/4/18; described as strongest binding sequence. Particulars: tags: C-terminal His6, self-assembled on CdSe/CdS/ZnS quantum dot; label: Cy5 at 5' and 3'.
Data set [6] deals with T2, TetRc-tdTomato. As to the kind of experiment: FRET; only collisional quenching. Particulars: tags: tdTomato fusion, Strep-tag purified; chain copies: 2; label: Cy5 at 5' and 3' of reverse strand. The protocol:
(§3) For QD-based nanoconstructs, the his-tagged proteins self-assemble to the QD surface stoichiometrically according to the mixture ratio with a Poissonian distribution of proteins on the QD surface was used. […] Four his6-TetR monomers were used per QD for the titrations of Sensors 2 and 3 (FIG. 2A-C). […] Upon increasing DNA concentration, there is increased donor quenching in all three cases.
(§4) FRET assays. The FRET response of each sensor as a function of the donor-acceptor ratio was tested by titration of the acceptor while the concentration of the donor was kept constant. Briefly, the sensors were prepared in a solution of TBS+0.2% (w/v) BSA and 1× binding buffer (20 mM Tris-HCl, 5 mM MgCl_2, 5% glycerol, 50 ng/µl salmon sperm DNA). For Sensor 1, the final concentration of tetR-tdTomato was kept constant at 200 nM, while Cy5-modified DNA were titrated to yield donor-acceptor ratios ranging from 0-9. The sensor solution was pipetted into wells of a black, non-binding 384-well plate (Corning) with a final volume of 60 µl. For triplicate measurements, each of the above solutions were prepared with a final volume of 180 µl in microcentrifuge tubes and pipetted into 3 separate wells of 60 µl each.

The target of data set [7] is T3, TetRc-6His. The data set is described as follows: FRET; only collisional quenching. Particulars: tags: His6, on quantum dot QD1; chain copies: 2; label: Cy5 at 5' and 3' of reverse strand. The protocol:
as §3, §4
(§5) For Sensors 2 and 3, QDs and tetR-6His were mixed at a 1:4 ratio with a final QD concentration of 50 nM for self-assembly of the tetR-6His to the surface of the QDs[21]. […]

Data set [8] concerns the target T4, TetRd-6His. The data set is described as follows: FRET; only collisional quenching. The following applies: tags: His6, on quantum dot QD2; chain copies: 2; label: Cy5 at 5' and 3' of reverse strand. The protocol:
as §3, §4, §5

B1: DNA4 (13,15-T,T) (dsDNA)
DNA 1: CCTTAACTAGCCGTTCTGTTAGTTATTC
DNA 2: GAATAACTAACAGAACGGCTAGTTAAGG
Turning to B1, the IC50 in data set [1] came out at 150 nM.

B2: TetO 28 bp (dsDNA)
DNA 1: GTCATCCCTATCATTGATAGAGATACTG
DNA 2: CAGTATCTCTATCAATGATAGGGATGAC
Regarding B2, the EC50 in data set [2] came to 218 nM; in data set [3] it was 699 nM; in data set [4], 133 nM.

B3: DNA1 (AIY20223.2) (dsDNA)
DNA 1: GCCTAACTAGCCGTTCGGCTAGTTATTC
DNA 2: GAATAACTAGCCGAACGGCTAGTTAGGC
Consider B3, for which the half-inhibitory concentration (IC50) in data set [5] came out at 460 nM.

B4: DNA3 (AIY20222.2) (dsDNA)
DNA 1: GCCTAACTAGCCGTTCGGCAAGTAATTC
DNA 2: GAATTACTTGCCGAACGGCTAGTTAGGC
B4 came in with an IC50 in data set [1] of 290 nM.

B5: DNA2 (IG.AIY19519.15) (dsDNA)
DNA 1: GCCTAACTAGCCGATCGGCTAGTCATTC
DNA 2: GAATGACTAGCCGATCGGCTAGTTAGGC
As for B5, in data set [1], the IC50 was found to be 370 nM.

B6: Scrambled TetO control (dsDNA)
DNA 1: TCGTGAAACCGAGCGAGGGACACGCACA
DNA 2: TGTGCGTGTCCCTCGCTCGGTTTCACGA
For the molecule B6, the binding result in data set [6], in data set [7] and in data set [8] was “no binding” in each case.

The record behind these values is patent US11360104, “Microbial-based biosensors” (TRUSTEES OF BOSTON UNIVERSITY).
